Experimental data as given in patent US20210388087A1 (Chugai, published 2021).
Where a chain is given by its changes, count along the chain named.

B1: CE115HA000/GLS3000 R24T (antibody, IgG1, name in Kabat numbering, V domains shown)
VH: QVQLVESGGGVVQPGRSLRLSCAASGFTFSNAWMHWVRQAPGKGLEWVAQIKAKSNNYATYYAESVKGRFTISRDDSKNSLYLQMNSLKTEDTAVYYCRYVHYGAYYGVDAWGQGTTVTVSS
VL: DIVMTQSPLSLPVTPGEPASISCTSSQSLVHSNRNTYLHWYQQKPGQAPRLLIYKVSNRFSGVPDRFSGSGSGTDFTLKISRVEAEDVGVYYCGQGTQVPYTFGQGTKLEIK
notes: one-arm IgG1
B2: CE115HA000/GLS3000 R29I (antibody, IgG1, name in Kabat numbering, V domains shown)
VH: B1 VH
VL: B1 VL with T24R, R34I
notes: one-arm IgG1
B3: CE115HA000/GLS3000 R54D (antibody, IgG1, name in Kabat numbering, V domains shown)
VH: B1 VH
VL: B1 VL with T24R, R59D
notes: one-arm IgG1
B4: CE115HA000/GLS3000 R29S (antibody, IgG1, name in Kabat numbering, V domains shown)
VH: B1 VH
VL: B1 VL with T24R, R34S
notes: one-arm IgG1
B5: CE115HA000/GLS3000 R54A (antibody, IgG1, name in Kabat numbering, V domains shown)
VH: B1 VH
VL: B1 VL with T24R, R59A
notes: one-arm IgG1
B6: CE115HA000/GLS3000 R54G (antibody, IgG1, name in Kabat numbering, V domains shown)
VH: B1 VH
VL: B1 VL with T24R, R59G
notes: one-arm IgG1
B7: CE115HA000/GLS3000 R54E (antibody, IgG1, name in Kabat numbering, V domains shown)
VH: B1 VH
VL: B1 VL with T24R, R59E
notes: one-arm IgG1
B8: CE115HA000/GLS3000 R29D (antibody, IgG1, name in Kabat numbering, V domains shown)
VH: B1 VH
VL: B1 VL with T24R, R34D
notes: one-arm IgG1
B9: CE115HA000/GLS3000 R29P (antibody, IgG1, name in Kabat numbering, V domains shown)
VH: B1 VH
VL: B1 VL with T24R, R34P
notes: one-arm IgG1
B10: CE115HA000/GLS3000 R54P (antibody, IgG1, name in Kabat numbering, V domains shown)
VH: B1 VH
VL: B1 VL with T24R, R59P
notes: one-arm IgG1
B11: CE115HA000/GLS3000 R29L (antibody, IgG1, name in Kabat numbering, V domains shown)
VH: B1 VH
VL: B1 VL with T24R, R34L
notes: one-arm IgG1
B12: CE115HA000/GLS3000 R29Y (antibody, IgG1, name in Kabat numbering, V domains shown)
VH: B1 VH
VL: B1 VL with T24R, R34Y
notes: one-arm IgG1
B13: CE115HA000/GLS3000 R29A (antibody, IgG1, name in Kabat numbering, V domains shown)
VH: B1 VH
VL: B1 VL with T24R, R34A
notes: one-arm IgG1
B14: CE115HA000/GLS3000 R24Y (antibody, IgG1, name in Kabat numbering, V domains shown)
VH: B1 VH
VL: B1 VL with T24Y
notes: one-arm IgG1
B15: CE115HA000/GLS3000 R29V (antibody, IgG1, name in Kabat numbering, V domains shown)
VH: B1 VH
VL: B1 VL with T24R, R34V
notes: one-arm IgG1
B16: CE115HA000/GLS3000 R54Q (antibody, IgG1, name in Kabat numbering, V domains shown)
VH: B1 VH
VL: B1 VL with T24R, R59Q
notes: one-arm IgG1
B17: CE115HA000/GLS3000 R29G (antibody, IgG1, name in Kabat numbering, V domains shown)
VH: B1 VH
VL: B1 VL with T24R, R34G
notes: one-arm IgG1
B18: CE115HA000/GLS3000 R29T (antibody, IgG1, name in Kabat numbering, V domains shown)
VH: B1 VH
VL: B1 VL with T24R, R34T
notes: one-arm IgG1

target: T1, CD3 epsilon homodimer protein (UniProt P07766 23-126); test: SPR, antibody over immobilised CD3e homodimer;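 further: SPR at 25 °C with CD3 epsilon homodimer amine-coupled to a CM4 sensor chip and antibody flowed over as analyte in HBS-EP+ running buffer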
T1 construct: also called CD3 (CD3 epsilon)
T1 sequence (P07766 23-126): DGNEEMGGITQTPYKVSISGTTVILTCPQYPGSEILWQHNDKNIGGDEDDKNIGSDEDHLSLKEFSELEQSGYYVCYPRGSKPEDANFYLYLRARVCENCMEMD

Row | Binder | KD ratio to GLS3000
1 | B1 | 1.03
2 | B2 | 1.6
3 | B3 | 1.8
4 | B4 | 1.05
5 | B5 | 0.85
6 | B6 | 0.88
7 | B7 | 0.84
8 | B8 | 1.58
9 | B9 | 14
10 | B10 | 1.05
11 | B11 | 0.9
12 | B12 | 1.08
13 | B13 | 1.15
14 | B14 | 0.94
15 | B15 | 2.25
16 | B16 | 1.04
17 | B17 | 0.62
18 | B18 | 1.02
